In assay [1] the target is T1, human AXL expressed on the cell surface of tumor cell lines (human, UniProt P30530 26-894).
T1 construct: whole, on cells; also called cell surface-expressed AXL; cell-based AXL
T1 sequence (looked up): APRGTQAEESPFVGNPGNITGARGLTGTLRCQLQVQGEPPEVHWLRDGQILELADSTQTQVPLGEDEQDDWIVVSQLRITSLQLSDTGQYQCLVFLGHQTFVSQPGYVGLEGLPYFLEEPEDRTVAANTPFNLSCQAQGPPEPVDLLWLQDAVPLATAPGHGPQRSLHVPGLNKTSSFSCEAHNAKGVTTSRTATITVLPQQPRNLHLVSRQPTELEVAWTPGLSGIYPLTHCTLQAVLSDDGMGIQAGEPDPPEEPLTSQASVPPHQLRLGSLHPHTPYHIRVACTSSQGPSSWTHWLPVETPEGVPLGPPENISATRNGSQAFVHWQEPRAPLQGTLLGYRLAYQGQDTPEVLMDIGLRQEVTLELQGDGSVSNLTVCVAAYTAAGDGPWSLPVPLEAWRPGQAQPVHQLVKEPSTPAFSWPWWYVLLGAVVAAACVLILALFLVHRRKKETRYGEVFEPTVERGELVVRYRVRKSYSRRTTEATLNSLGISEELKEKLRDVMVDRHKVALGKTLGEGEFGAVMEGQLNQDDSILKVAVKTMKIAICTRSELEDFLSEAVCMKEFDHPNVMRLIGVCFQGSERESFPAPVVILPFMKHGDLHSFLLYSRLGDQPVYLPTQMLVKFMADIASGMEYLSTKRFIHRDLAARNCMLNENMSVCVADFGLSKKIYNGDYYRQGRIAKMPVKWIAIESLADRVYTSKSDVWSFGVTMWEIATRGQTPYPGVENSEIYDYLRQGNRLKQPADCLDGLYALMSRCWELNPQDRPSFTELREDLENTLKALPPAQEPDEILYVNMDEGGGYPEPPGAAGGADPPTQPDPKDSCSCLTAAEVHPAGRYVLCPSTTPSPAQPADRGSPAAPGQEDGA
As to the kind of experiment: FACS on NCI-H292 cells, apparent Kd. How it is done:
(§1) FACS binding assay. Adherent cells were dissociated with non-enzymatic Sigma Cell Dissociation Solution (Cat. No. C5789). Cells suspensions were added to polypropylene, V-bottom 96-well plates and incubated for 2 hours on ice with primary antibodies at concentrations ranging from 100 nM to 0.001 nM or at a single dose of 100 nM (for the non-specific control). After incubation and washes, cells were incubated with fluorescently labeled secondary antibody (Alexa Fluor® 488 anti-human IgG from Jackson Cat. No 709-546-098) for 1 hour on ice, then washed. Cell viability was determined using Fixable viability dye 450 (20 min on ice). Stained cells were fixed in 1% formaldehyde at 4° C. and stored at 4° C. until acquisition which was performed the next day.
(§2) Binding of recombinant chimeric Abs to three cell lines was assessed by FACS as described above. The apparent Bmax and Kd determination is shown below in Table 14.

In assay [2] the target is T1, human AXL expressed on the cell surface …. The assay can be described thus: FACS on MDA-MB-231 luciferase cells, apparent Kd. How it is done: as §1, §2
Assay [3] addresses T2, huMER-ECD displayed on yeast (human, UniProt Q12866 21-505).
T2 construct: extracellular domain
T2 sequence (looked up): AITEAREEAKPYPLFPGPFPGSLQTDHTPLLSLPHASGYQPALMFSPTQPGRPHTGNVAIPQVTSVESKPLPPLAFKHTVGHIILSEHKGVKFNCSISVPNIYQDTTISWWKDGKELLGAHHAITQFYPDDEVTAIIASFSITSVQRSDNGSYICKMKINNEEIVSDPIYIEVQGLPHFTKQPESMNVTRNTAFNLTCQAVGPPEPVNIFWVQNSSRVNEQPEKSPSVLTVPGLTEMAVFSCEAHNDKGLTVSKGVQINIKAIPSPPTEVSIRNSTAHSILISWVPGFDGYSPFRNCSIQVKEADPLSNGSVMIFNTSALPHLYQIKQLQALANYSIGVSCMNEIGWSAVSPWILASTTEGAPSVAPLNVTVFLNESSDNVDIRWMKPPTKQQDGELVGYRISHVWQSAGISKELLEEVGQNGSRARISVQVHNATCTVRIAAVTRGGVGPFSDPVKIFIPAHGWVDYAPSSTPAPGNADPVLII
As to the kind of experiment: yeast surface display ELISA, non-denatured yeast, goat anti-human F(ab')2-HRP. (In an ELISA, binding on a coated surface is turned into a signal by an enzyme label.)

Assay [4] deals with T1, human AXL expressed on the cell surface …. The assay can be described thus: FACS on SKOV3 cells, apparent Kd. The procedure: as §1, §2
Assay [5] concerns the target T3, recombinant human AXL extracellular domain, C-terminally His8-tagged (rhAXL-ECD) (human, UniProt P30530 26-451).
T3 construct: Made in CHO cells; also called (rh)AXL-ECD His8; human AXL ECD
T3 sequence: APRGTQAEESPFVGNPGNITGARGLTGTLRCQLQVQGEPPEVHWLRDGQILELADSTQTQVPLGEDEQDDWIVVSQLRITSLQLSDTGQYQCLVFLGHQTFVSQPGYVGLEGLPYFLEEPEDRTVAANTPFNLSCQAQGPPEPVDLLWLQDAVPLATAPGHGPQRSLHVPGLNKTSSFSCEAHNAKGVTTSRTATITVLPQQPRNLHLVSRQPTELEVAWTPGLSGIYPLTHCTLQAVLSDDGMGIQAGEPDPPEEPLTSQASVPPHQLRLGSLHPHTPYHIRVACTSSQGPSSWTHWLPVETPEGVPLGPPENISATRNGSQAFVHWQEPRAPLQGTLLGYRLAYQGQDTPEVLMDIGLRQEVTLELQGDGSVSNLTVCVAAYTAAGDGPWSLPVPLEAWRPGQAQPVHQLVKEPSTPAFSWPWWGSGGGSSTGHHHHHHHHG
As to the kind of experiment: SPR Biacore T200, mAb captured on anti-Fc, AXL ECD flowed (footnote b printed in a row of footnote a). The procedure:
Surface plasmon resonance. For murine mAbs, binding to human and cynomolgus AXL ECD was assessed using a Biacore T200 instrument. Briefly, either anti-mouse or anti-human Fc antibody was immobilized on a research-grade CM5 series S sensor chip using amine coupling in acetate buffer. Murine or recombinant chimeric murine-human mAbs (mouse VH/VL; human constant regions) were captured, then recombinant human or cyno AXL ECD was flowed over the surface at different concentration ranges (0.1-500 nM) depending on the antibody. The running buffer was PBS/Tween-20 and the flow rate 100 uL/min. All binding studies were performed at 25° C. Surfaces were regenerated using 10 mM glycine, pH 1.5.
(SPR reads the build-up and loss of mass on a sensor chip optically.)

The target in assay [6] is T1, human AXL expressed on the cell surface …. The assay can be described thus: FACS on MDA-MB-231 luciferase cells, apparent Kd, human Fc format. How it is done:
as §1, §2

B1: hFC-F107-10G1 (antibody, human IgG1, kappa, V domains shown)
VH: EVNLVESGGGVVKPGASLKLSCEASGFTFSNYGMSWVRQTSDKRLEWVASISGGGGRTYYLDNVKGRFIISRENAKNTLYLQMSSLKSEDTALFYCARGARASYFAMDYWGQGSSVTVSS
VL: VIVMTQSHKFMSTSVGDRVSITCKASQDVTTAVAWYQQKPGQSPKLLIYWASTRHTGVPDRFTGSGSGTDYSLTISNVQTEDLAFYYCQQHFTTPLTFGAGTKLELKR
notes: Chimeric mAb, human IgG1 / human kappa constant regions; also called mAb F107-10G1
The term koff denotes the first-order rate constant of dissociation. B1: the Kd in assay [1] was determined as 70.8 pM; in assay [2], 101 pM; in assay [4] it was 60.8 pM. Moreover, the “yeast ELISA signal normalized to myc expression level” value in assay [3] is -0.02. In assay [5], the off-rate constant (koff) was determined as 0.00059 s⁻¹.

B2: NRC-sdAb001-Fc (VHH-human IgG1 Fc fusion) (Fc fusion)
chain: QVKLEESGGGLVQAGGSLRLSCTASASISSFDIMGWYRQAPGKQRELVAAITTLDIANYRDSVKGRFTISRDNAKNTVYLQMDSLKPEDTARYHCAAFQSDQNYWGQGTQVTVSS
notes: VHH fused N-terminally to human IgG1 Fc, made in HEK293 cells; also called NRC-sdAb0001-Fc; NRC-sdAb001-hIgG1; not shown: human IgG1 Fc
On to B2, for which, in assay [6], the Kd came to 233 pM.
